T1: bZIP25 DNA binding domain and leucine zipper region (V230-S322) (Arabidopsis thaliana (Mouse-ear cress), UniProt Q9M1G6)
T1 chain: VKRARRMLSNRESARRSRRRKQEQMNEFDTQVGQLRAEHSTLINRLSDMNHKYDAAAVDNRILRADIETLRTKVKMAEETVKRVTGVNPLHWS

B1: bZIP25 DNA binding domain and leucine zipper region (V230-S322) (domain or fragment, Arabidopsis thaliana, UniProt Q9M1G6 230-322, looked up)
chain: T1 chain
notes: In the protoplast reporter assays the full-length protein was expressed from a plasmid; source: E. coli BL21 (DE-3), HPLC purified
B2: bZIP39 DNA binding domain and leucine zipper region (V351-L442) (protein)
chain: VEKVVERRQRRMIKNRESAARSRARKQAYTVELEAELNQLKEENAQLKHALAELERKRKQQYFESLKSRAQPKLPKSNGRLRTLMRNPSCPL
B3: bZIP53 DNA binding domain and leucine zipper region (Y18-D116) (domain or fragment, Arabidopsis thaliana, UniProt Q9LZP8 18-116, looked up)
chain: YATVTDERKRKRMISNRESARRSRMRKQKQLGDLINEVTLLKNDNAKITEQVDEASKKYIEMESKNNVLRAQASELTDRLRSLNSVLEMVEEISGQALD
notes: An internal HindIII site of the amplicon was destroyed by site-directed mutagenesis; Measured monomer mass 12957 Da; In the protoplast reporter assays the full-length protein was expressed from a plasmid; also called basic leucine zipper 53; source: E. coli BL21 (DE-3), HPLC purified

Legend:
[1] = CD thermal denaturation; protein alone, 2 µM dimer, ellipticity at 222 nm, heated from 6–85 °C, two-state fit; KD at 25 °C calculated from ΔGDi; dimer to monomers; settings: other: CD thermal denaturation
[2] = target: bZIP10 DNA binding domain and leucine zipper region (V216-S301) (Arabidopsis thaliana); experiment: as above
[3] = target: bZIP10 DNA binding domain and leucine zipper region (V216-S301) (Arabidopsis thaliana); experiment: native MS; ESI-MS in unbuffered MS grade water, 2 µM homodimer, 4 µM heterodimer mixtures, samples kept at 23 ± 2 °C, ion spray interface temperature switched off, declustering potential 10 V
Q9M1G6 = experiment: CD thermal denaturation; protein alone, 2 µM dimer, ellipticity at 222 nm, heated from 6–85 °C, two-state fit; KD at 25 °C calculated from ΔGDi; dimer to monomers; settings: other: CD thermal denaturation
[4] = target: the molecule itself; experiment: as above
[5] = target: the molecule itself; experiment: native MS; ESI-MS in unbuffered MS grade water, 2 µM homodimer, 4 µM heterodimer mixtures, samples kept at 23 ± 2 °C, ion spray interface temperature switched off, declustering potential 10 V
Q9SJN0 = experiment: CD thermal denaturation; protein alone, 2 µM dimer, ellipticity at 222 nm, heated from 6–85 °C, two-state fit; KD at 25 °C calculated from ΔGDi; dimer to monomers; settings: other: CD thermal denaturation
Q9LZP8 = experiment: as above; settings: other: CD thermal denaturation
[6] = target: T1, bZIP25 DNA binding domain and leucine …; experiment: CD thermal denaturation (222 nm) of equimolar mix versus sum curve, plus ESI-MS; absence of DNA; the paper concludes heterodimerization is DNA-mediated (synergistic reporter activation in protoplasts)

Molecule | dH (ΔHm, at Tm) [1] | Kd [4] | stoichiometry N [5] | further results
bZIP10 DNA binding domain and leucine zipper region (V216-S301) | -41.1 kcal/mol |  |  | 
bZIP72 DNA binding domain and leucine zipper region (D48-T150) | -57.3 kcal/mol |  |  | 
bZIP10 DNA binding domain and leucine zipper region (V216-S301) (domain or fragment) |  |  |  | Kd [2]: 3 nM; stoichiometry N [3]: 2
B1 |  | 0.05 nM | 2 | dH (ΔHm, at Tm) (Q9M1G6): -55.3 kcal/mol
B2 |  |  |  | dH (ΔHm, at Tm) (Q9SJN0): -43.2 kcal/mol
B3 |  | 50 nM | 2 | dH (ΔHm, at Tm) (Q9LZP8): -35.5 kcal/mol; binding result [6]: no binding

Source: paper PMC5662769, “A-ZIP53, a dominant negative reveals the molecular mechanism of heterodimerization between bZIP53, bZIP10 and bZIP25 involved in Arabidopsis seed maturation” (Scientific Reports, 2017)
